Laboratory results taken from US20250108112A1.

Legend:
TGFβ1 (R&D systems) = TGFβ1 (R&D systems) (UniProt P01137); test: cell-based or functional assay
[1] = target: IL2Rβ and common γ chain expressed on 32Dβ cells; test: cell-based or functional assay

Sequence of UniProt P01137 (P01137 279-390 limits assumed): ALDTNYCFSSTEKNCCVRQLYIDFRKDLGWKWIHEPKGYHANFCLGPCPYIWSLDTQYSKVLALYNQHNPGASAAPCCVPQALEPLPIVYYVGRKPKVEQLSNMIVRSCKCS

| Substance | IC50 for TGFβ1 activity in HEK-Blue TGFβ cells (QUANTI-Blue OD at 620-655 nM) (TGFβ1 (R&D systems)) [nM] | EC50 of 32Dβ cell proliferation (WST1, absorbance at 450 nM) [1] [nM] |
| --- | --- | --- |
| TGFR-Fc (R&D Systems) (Fc fusion) | 0.461 | – |
| recombinant IL-15 (from UniProt P40933 49-162) (ligand) | – | 0.0106 |
